# Reference: publication PMC9482650, “Quantitative fragmentomics allow affinity mapping of interactomes” (Nature Communications, 2022)
# B1: KCNJ18, B7U540 (peptide)
# chain: QRPYRRGSEI
# B2: FRMPD1, Q5SYB0 (peptide)
# chain: TQKFRASTAL
# Target: GRID2IP_1, A4D2P6
# Assay: holdup assay
# Parameters: key: below the threshold = too weak to quantify, mostly under pKd 3.1 to 4
# Conditions: plain residues with an end cap or a label only (N-terminal biotin on a linker: ado-ado)
# Sequence of GRID2IP_1, A4D2P6 (A4D2P6 1-87): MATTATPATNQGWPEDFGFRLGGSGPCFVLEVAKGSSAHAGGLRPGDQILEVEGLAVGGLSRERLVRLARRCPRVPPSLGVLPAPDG
row,Binder,pKd
1,B1,below the threshold

# Same assay, conditions: plain residues with an end cap or a label only (N-terminal biotin on a linker: ahx)
row,Binder,pKd
1,B2,below the threshold

# Target: T1, MPDZ_12, O75970
# T1 sequence (O75970 1857-1958, limits assumed, looked up): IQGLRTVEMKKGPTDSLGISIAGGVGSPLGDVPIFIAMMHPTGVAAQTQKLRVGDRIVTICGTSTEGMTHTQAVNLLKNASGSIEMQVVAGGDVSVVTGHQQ
# Assay: holdup assay
# Parameters: key: below the threshold = too weak to quantify, mostly under pKd 3.1 to 4
# Conditions: plain residues with an end cap or a label only (N-terminal biotin on a linker: ado-ado)
row,Binder,pKd
1,B1,3.56

# Same assay, conditions: plain residues with an end cap or a label only (N-terminal biotin on a linker: ahx)
row,Binder,pKd
1,B2,below the threshold

# Target: T2, PDZRN3_1, Q9UPQ7
# T2 sequence (Q9UPQ7 244-349, limits assumed, looked up): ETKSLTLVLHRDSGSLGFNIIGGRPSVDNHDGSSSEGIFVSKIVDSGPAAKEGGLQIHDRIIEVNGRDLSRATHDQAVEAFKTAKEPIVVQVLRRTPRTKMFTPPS
# Assay: holdup assay
# Parameters: key: below the threshold = too weak to quantify, mostly under pKd 3.1 to 4
# Conditions: plain residues with an end cap or a label only (N-terminal biotin on a linker: ado-ado)
row,Binder,pKd
1,B1,below the threshold

# Same assay, conditions: plain residues with an end cap or a label only (N-terminal biotin on a linker: ahx)
row,Binder,pKd
1,B2,4.16

# Target: FRMPD2_3, Q68DX3
# Sequence (Q68DX3 1073-1166): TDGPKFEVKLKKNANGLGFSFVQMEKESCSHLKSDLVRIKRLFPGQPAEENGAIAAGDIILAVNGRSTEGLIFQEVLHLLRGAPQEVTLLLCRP
# Assay: holdup assay
# Parameters: key: below the threshold = too weak to quantify, mostly under pKd 3.1 to 4
# Conditions: plain residues with an end cap or a label only (N-terminal biotin on a linker: ado-ado)
row,Binder,pKd
1,B1,below the threshold

# Same assay, conditions: plain residues with an end cap or a label only (N-terminal biotin on a linker: ahx)
row,Binder,pKd
1,B2,below the threshold

# Target: T3, LIN7B, Q9HAP6
# T3 sequence (Q9HAP6 88-185, limits assumed, looked up): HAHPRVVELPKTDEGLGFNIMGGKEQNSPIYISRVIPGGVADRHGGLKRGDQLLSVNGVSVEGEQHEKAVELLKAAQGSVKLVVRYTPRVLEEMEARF
# Assay: holdup assay
# Parameters: key: below the threshold = too weak to quantify, mostly under pKd 3.1 to 4
# Conditions: plain residues with an end cap or a label only (N-terminal biotin on a linker: ado-ado)
row,Binder,pKd
1,B1,3.62

# Same assay, conditions: plain residues with an end cap or a label only (N-terminal biotin on a linker: ahx)
row,Binder,pKd
1,B2,below the threshold

# Target: NHERF4_4, Q86UT5
# Sequence (Q86UT5 464-550): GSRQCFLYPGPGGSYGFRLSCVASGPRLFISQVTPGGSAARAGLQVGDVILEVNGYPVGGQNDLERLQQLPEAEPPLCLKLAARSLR
# Assay: holdup assay
# Parameters: key: below the threshold = too weak to quantify, mostly under pKd 3.1 to 4
# Conditions: plain residues with an end cap or a label only (N-terminal biotin on a linker: ado-ado)
row,Binder,pKd
1,B1,below the threshold

# Same assay, conditions: plain residues with an end cap or a label only (N-terminal biotin on a linker: ahx)
row,Binder,pKd
1,B2,below the threshold

# Target: LDB3, O75112
# Sequence (O75112 1-94): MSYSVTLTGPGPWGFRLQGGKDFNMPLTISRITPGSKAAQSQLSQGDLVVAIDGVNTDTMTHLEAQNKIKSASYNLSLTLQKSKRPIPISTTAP
# Assay: holdup assay
# Parameters: key: below the threshold = too weak to quantify, mostly under pKd 3.1 to 4
# Conditions: plain residues with an end cap or a label only (N-terminal biotin on a linker: ado-ado)
row,Binder,pKd
1,B1,below the threshold

# Same assay, conditions: plain residues with an end cap or a label only (N-terminal biotin on a linker: ahx)
row,Binder,pKd
1,B2,below the threshold

# Target: T4, MPDZ_10, O75970
# T4 sequence (O75970 1624-1722, limits assumed, looked up): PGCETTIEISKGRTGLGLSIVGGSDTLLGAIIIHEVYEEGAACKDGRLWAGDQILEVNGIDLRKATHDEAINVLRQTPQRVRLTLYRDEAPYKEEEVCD
# Assay: holdup assay
# Parameters: key: below the threshold = too weak to quantify, mostly under pKd 3.1 to 4
# Conditions: plain residues with an end cap or a label only (N-terminal biotin on a linker: ado-ado)
row,Binder,pKd
1,B1,below the threshold

# Same assay, conditions: plain residues with an end cap or a label only (N-terminal biotin on a linker: ahx)
row,Binder,pKd
1,B2,below the threshold

# Target: SCRIB_1, Q14160
# Sequence (Q14160 718-814): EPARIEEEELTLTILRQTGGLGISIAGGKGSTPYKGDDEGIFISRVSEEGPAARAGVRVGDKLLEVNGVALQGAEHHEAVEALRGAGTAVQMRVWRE
# Assay: holdup assay
# Parameters: key: below the threshold = too weak to quantify, mostly under pKd 3.1 to 4
# Conditions: plain residues with an end cap or a label only (N-terminal biotin on a linker: ado-ado)
row,Binder,pKd
1,B1,below the threshold

# Same assay, conditions: plain residues with an end cap or a label only (N-terminal biotin on a linker: ahx)
row,Binder,pKd
1,B2,4.22

# Target: T5, MPDZ_5, O75970
# T5 sequence (O75970 695-796, limits assumed, looked up): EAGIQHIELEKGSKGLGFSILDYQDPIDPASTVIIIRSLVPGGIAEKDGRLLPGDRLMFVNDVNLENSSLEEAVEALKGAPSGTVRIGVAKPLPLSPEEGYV
# Assay: holdup assay
# Parameters: key: below the threshold = too weak to quantify, mostly under pKd 3.1 to 4
# Conditions: plain residues with an end cap or a label only (N-terminal biotin on a linker: ado-ado)
row,Binder,pKd
1,B1,below the threshold

# Same assay, conditions: plain residues with an end cap or a label only (N-terminal biotin on a linker: ahx)
row,Binder,pKd
1,B2,below the threshold

# Target: T6, RAPGEF6, Q8TEU7
# T6 sequence (Q8TEU7 525-625, limits assumed, looked up): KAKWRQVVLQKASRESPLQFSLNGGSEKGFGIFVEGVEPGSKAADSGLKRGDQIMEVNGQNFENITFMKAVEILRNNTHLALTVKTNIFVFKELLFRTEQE
# Assay: holdup assay
# Parameters: key: below the threshold = too weak to quantify, mostly under pKd 3.1 to 4
# Conditions: plain residues with an end cap or a label only (N-terminal biotin on a linker: ado-ado)
row,Binder,pKd
1,B1,below the threshold

# Same assay, conditions: plain residues with an end cap or a label only (N-terminal biotin on a linker: ahx)
row,Binder,pKd
1,B2,below the threshold

# Target: Inadl_5, Q8NI35
# Sequence (Q8NI35 673-780): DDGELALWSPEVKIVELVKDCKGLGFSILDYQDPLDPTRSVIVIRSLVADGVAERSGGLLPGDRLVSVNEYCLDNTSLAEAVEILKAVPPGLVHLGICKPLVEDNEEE
# Assay: holdup assay
# Parameters: key: below the threshold = too weak to quantify, mostly under pKd 3.1 to 4
# Conditions: plain residues with an end cap or a label only (N-terminal biotin on a linker: ado-ado)
row,Binder,pKd
1,B1,below the threshold

# Same assay, conditions: plain residues with an end cap or a label only (N-terminal biotin on a linker: ahx)
row,Binder,pKd
1,B2,below the threshold

# Target: NHERF4_2, Q86UT5
# Sequence (Q86UT5 220-308): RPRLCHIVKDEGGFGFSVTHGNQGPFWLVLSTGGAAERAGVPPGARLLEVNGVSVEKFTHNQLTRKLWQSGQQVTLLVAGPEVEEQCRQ
# Assay: holdup assay
# Parameters: key: below the threshold = too weak to quantify, mostly under pKd 3.1 to 4
# Conditions: plain residues with an end cap or a label only (N-terminal biotin on a linker: ado-ado)
row,Binder,pKd
1,B1,below the threshold

# Same assay, conditions: plain residues with an end cap or a label only (N-terminal biotin on a linker: ahx)
row,Binder,pKd
1,B2,below the threshold

# Target: T7, DLG3_2, Q92796
# T7 sequence (Q92796 221-321, limits assumed, looked up): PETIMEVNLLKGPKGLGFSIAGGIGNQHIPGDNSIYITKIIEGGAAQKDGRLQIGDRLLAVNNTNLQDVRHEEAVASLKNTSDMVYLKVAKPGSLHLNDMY
# Assay: holdup assay
# Parameters: key: below the threshold = too weak to quantify, mostly under pKd 3.1 to 4
# Conditions: plain residues with an end cap or a label only (N-terminal biotin on a linker: ado-ado)
row,Binder,pKd
1,B1,4.14

# Same assay, conditions: plain residues with an end cap or a label only (N-terminal biotin on a linker: ahx)
row,Binder,pKd
1,B2,below the threshold

# Target: T8, SIPA1L2, Q9P2F8
# T8 sequence (Q9P2F8 945-1036, limits assumed, looked up): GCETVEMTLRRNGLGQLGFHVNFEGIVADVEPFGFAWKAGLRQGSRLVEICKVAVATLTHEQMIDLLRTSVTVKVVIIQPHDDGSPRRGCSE
# Assay: holdup assay
# Parameters: key: below the threshold = too weak to quantify, mostly under pKd 3.1 to 4
# Conditions: plain residues with an end cap or a label only (N-terminal biotin on a linker: ado-ado)
row,Binder,pKd
1,B1,below the threshold

# Same assay, conditions: plain residues with an end cap or a label only (N-terminal biotin on a linker: ahx)
row,Binder,pKd
1,B2,below the threshold

# Target: T9, DLG3_1, Q92796
# T9 sequence (Q92796 125-227, limits assumed, looked up): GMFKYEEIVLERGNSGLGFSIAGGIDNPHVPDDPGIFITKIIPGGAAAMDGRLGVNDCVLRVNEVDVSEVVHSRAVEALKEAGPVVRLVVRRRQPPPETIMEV
# Assay: holdup assay
# Parameters: key: below the threshold = too weak to quantify, mostly under pKd 3.1 to 4
# Conditions: plain residues with an end cap or a label only (N-terminal biotin on a linker: ado-ado)
row,Binder,pKd
1,B1,below the threshold

# Same assay, conditions: plain residues with an end cap or a label only (N-terminal biotin on a linker: ahx)
row,Binder,pKd
1,B2,below the threshold

# Target: Inadl_3, Q8NI35
# Sequence (Q8NI35 359-469): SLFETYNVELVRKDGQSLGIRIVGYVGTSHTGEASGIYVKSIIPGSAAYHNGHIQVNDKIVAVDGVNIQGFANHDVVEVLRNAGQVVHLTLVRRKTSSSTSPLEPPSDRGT
# Assay: holdup assay
# Parameters: key: below the threshold = too weak to quantify, mostly under pKd 3.1 to 4
# Conditions: plain residues with an end cap or a label only (N-terminal biotin on a linker: ado-ado)
row,Binder,pKd
1,B1,below the threshold

# Same assay, conditions: plain residues with an end cap or a label only (N-terminal biotin on a linker: ahx)
row,Binder,pKd
1,B2,below the threshold

# Target: DLG1_3, Q12959
# Sequence (Q12959 457-571): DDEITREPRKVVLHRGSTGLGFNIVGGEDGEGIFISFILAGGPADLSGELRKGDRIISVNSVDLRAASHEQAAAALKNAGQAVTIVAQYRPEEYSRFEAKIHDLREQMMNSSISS
# Assay: holdup assay
# Parameters: key: below the threshold = too weak to quantify, mostly under pKd 3.1 to 4
# Conditions: plain residues with an end cap or a label only (N-terminal biotin on a linker: ado-ado)
row,Binder,pKd
1,B1,below the threshold

# Same assay, conditions: plain residues with an end cap or a label only (N-terminal biotin on a linker: ahx)
row,Binder,pKd
1,B2,3.49

# Target: T10, SNTG2, Q9NY99
# T10 sequence (Q9NY99 68-166, limits assumed, looked up): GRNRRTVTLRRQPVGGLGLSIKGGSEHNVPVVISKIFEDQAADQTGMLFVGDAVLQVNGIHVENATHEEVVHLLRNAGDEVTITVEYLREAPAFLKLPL
# Assay: holdup assay
# Parameters: key: below the threshold = too weak to quantify, mostly under pKd 3.1 to 4
# Conditions: plain residues with an end cap or a label only (N-terminal biotin on a linker: ado-ado)
row,Binder,pKd
1,B1,below the threshold

# Same assay, conditions: plain residues with an end cap or a label only (N-terminal biotin on a linker: ahx)
row,Binder,pKd
1,B2,below the threshold

# Target: TJP1_3, Q07157
# Sequence (Q07157 416-512): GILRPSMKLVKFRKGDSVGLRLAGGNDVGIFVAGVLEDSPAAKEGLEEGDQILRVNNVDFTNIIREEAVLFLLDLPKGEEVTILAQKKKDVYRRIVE
# Assay: holdup assay
# Parameters: key: below the threshold = too weak to quantify, mostly under pKd 3.1 to 4
# Conditions: plain residues with an end cap or a label only (N-terminal biotin on a linker: ado-ado)
row,Binder,pKd
1,B1,below the threshold

# Same assay, conditions: plain residues with an end cap or a label only (N-terminal biotin on a linker: ahx)
row,Binder,pKd
1,B2,below the threshold

# Target: SNX27, Q96L92
# Assay: holdup assay
# Parameters: key: below the threshold = too weak to quantify, mostly under pKd 3.1 to 4
# Conditions: plain residues with an end cap or a label only (N-terminal biotin on a linker: ado-ado)
row,Binder,pKd
1,B1,below the threshold

# Same assay, conditions: plain residues with an end cap or a label only (N-terminal biotin on a linker: ahx)
row,Binder,pKd
1,B2,4.03

# Target: T11, NHERF3_3, Q5T2W1
# T11 sequence (Q5T2W1 238-333, limits assumed, looked up): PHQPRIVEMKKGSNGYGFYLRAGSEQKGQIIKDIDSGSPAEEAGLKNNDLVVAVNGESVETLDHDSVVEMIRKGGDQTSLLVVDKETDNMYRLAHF
# Assay: holdup assay
# Parameters: key: below the threshold = too weak to quantify, mostly under pKd 3.1 to 4
# Conditions: plain residues with an end cap or a label only (N-terminal biotin on a linker: ado-ado)
row,Binder,pKd
1,B1,below the threshold

# Same assay, conditions: plain residues with an end cap or a label only (N-terminal biotin on a linker: ahx)
row,Binder,pKd
1,B2,below the threshold

# Target: T12, DFNB31_1, Q9P202
# T12 sequence (Q9P202 135-233, limits assumed, looked up): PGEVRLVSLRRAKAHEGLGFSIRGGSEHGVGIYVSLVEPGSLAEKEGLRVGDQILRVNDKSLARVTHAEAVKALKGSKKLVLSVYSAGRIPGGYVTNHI
# Assay: holdup assay
# Parameters: key: below the threshold = too weak to quantify, mostly under pKd 3.1 to 4
# Conditions: plain residues with an end cap or a label only (N-terminal biotin on a linker: ado-ado)
row,Binder,pKd
1,B1,3.9

# Same assay, conditions: plain residues with an end cap or a label only (N-terminal biotin on a linker: ahx)
row,Binder,pKd
1,B2,below the threshold

# Target: AHNAK1, Q09666
# Sequence (Q09666 4-100): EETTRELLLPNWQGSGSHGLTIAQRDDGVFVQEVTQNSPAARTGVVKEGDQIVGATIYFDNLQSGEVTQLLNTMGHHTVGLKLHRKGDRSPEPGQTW
# Assay: holdup assay
# Parameters: key: below the threshold = too weak to quantify, mostly under pKd 3.1 to 4
# Conditions: plain residues with an end cap or a label only (N-terminal biotin on a linker: ado-ado)
row,Binder,pKd
1,B1,below the threshold

# Same assay, conditions: plain residues with an end cap or a label only (N-terminal biotin on a linker: ahx)
row,Binder,pKd
1,B2,below the threshold
